Test results from US20050037949A1, “Mannose binding lectin and uses thereof” (priority 2002, published 2005).
Read-outs that look alike come from different tables or passages of the source.

What was measured:
[1] = biological target: MBL associated serine protease 2 (MASP2) (human) (UniProt O00187); assay: cell-based or functional assay
[2] = biological target: MBL associated serine protease 2 (MASP2) (human) (UniProt O00187); assay: cell-based or functional assay; remark: listed apart in the source

affinity purified MBL-MASP complex, sequence (P11226 21-248, one chain of several): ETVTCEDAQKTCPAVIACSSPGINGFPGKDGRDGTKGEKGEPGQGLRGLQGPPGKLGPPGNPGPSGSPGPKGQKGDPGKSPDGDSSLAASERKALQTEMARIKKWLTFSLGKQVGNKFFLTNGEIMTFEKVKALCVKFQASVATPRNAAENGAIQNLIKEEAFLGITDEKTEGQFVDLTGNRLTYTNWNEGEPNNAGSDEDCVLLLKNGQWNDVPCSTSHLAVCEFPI
MBL associated serine protease 2 (MASP2) (human), sequence (O00187 16-686 limits assumed): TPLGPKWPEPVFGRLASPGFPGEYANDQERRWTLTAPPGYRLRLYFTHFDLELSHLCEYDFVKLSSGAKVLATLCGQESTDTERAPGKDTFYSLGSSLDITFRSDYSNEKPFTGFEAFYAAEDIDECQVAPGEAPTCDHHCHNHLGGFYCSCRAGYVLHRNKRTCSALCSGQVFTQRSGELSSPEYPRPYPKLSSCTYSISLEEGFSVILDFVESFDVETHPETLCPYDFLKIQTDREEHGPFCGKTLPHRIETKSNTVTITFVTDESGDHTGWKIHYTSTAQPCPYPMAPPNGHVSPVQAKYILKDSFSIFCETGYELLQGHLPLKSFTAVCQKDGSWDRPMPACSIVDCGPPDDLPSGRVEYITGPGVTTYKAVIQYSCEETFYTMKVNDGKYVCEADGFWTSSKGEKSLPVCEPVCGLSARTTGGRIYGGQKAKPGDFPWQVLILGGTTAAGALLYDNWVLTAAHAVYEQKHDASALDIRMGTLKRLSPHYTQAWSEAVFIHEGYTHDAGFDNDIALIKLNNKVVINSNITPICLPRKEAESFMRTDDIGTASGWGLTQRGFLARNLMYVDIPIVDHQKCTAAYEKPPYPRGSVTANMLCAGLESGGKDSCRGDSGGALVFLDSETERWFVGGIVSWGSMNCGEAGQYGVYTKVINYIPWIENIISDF

Substance: affinity purified MBL-MASP complex (from UniProt P11226 21-248)
- C4 deposition at MBL 0.624 ug/mL [1]: 0.05 U/ul
- C4 deposition at MBL 1.032 ug/mL [1]: 0.068 U/ul
- C4 deposition at MBL 2.081 ug/mL [1]: 0.103 U/ul
- C4 deposition at MBL 3.3 ug/mL [1]: 0.197 U/ul
- C4 deposition at MBL 4.08 ug/mL [1]: 0.138 U/ul
- C4 deposition at MBL 4.42 ug/mL [1]: 0.168 U/ul
- C4 deposition at MBL 5.95 ug/mL [1]: 0.172 U/ul
- C4 deposition at MBL 6.94 ug/mL [1]: 0.197 U/ul
- C4 deposition at MBL 11.41 ug/mL [1]: 0.204 U/ul
- C4 deposition at MBL 15 ug/mL [1]: 0.246 U/ul
- C4 deposition at MBL 25 µg/mL (previous assay, same batch) [1]: 0.27 U/µl
- C4 deposition at MBL 40 ug/mL [1]: 0.321 U/ul
- C4 deposition at MBL 50 ug/mL [1]: 0.289 U/ul
- C4 deposition at MBL 0.471 ug/mL [2]: 0.054 U/ul
- C4 deposition at MBL 1.065 ug/mL [2]: 0.057 U/ul
- C4 deposition at MBL 2.237 ug/mL [2]: 0.104 U/ul
- C4 deposition at MBL 2.802 ug/mL [2]: 0.114 U/ul
- C4 deposition at MBL 4.011 ug/mL [2]: 0.138 U/ul
- C4 deposition at MBL 4.681 ug/mL [2]: 0.171 U/ul
- C4 deposition at MBL 5.382 ug/mL [2]: 0.159 U/ul
- C4 deposition at MBL 6.814 ug/mL [2]: 0.19 U/ul
- C4 deposition at MBL 7.967 ug/mL [2]: 0.203 U/ul
- C4 deposition at MBL 10.998 ug/mL [2]: 0.22 U/ul
- C4 deposition at MBL 40 ug/mL [2]: 0.292 U/ul
- C4 deposition at MBL 50 ug/mL [2]: 0.308 U/ul
